Data on 3 molecules can be found in US20180214548A1 (SHANGHAI YUNYI HEALTHCARE AND TECHNOLOGY, published 2018).

T1: B7-1 (human, UniProt P33681 35-242)
T1 sequence (looked up): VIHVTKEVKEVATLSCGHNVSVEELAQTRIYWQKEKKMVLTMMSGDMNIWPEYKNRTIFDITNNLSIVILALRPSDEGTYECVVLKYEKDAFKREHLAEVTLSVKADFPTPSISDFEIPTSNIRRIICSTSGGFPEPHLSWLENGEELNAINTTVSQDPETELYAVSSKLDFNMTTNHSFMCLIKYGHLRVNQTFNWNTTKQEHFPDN

T2: ICOS (human, UniProt Q9Y6W8 21-140, limits assumed)
T2 sequence (looked up): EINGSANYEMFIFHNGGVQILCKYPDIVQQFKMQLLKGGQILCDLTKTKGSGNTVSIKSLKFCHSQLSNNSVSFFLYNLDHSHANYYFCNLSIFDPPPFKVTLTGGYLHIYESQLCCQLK

T3: CTLA4 (human, UniProt P16410 37-162, limits assumed)
T3 sequence (looked up): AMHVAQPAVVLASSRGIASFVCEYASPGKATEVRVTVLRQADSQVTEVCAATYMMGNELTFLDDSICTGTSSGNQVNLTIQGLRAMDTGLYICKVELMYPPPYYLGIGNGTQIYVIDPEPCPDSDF

B1: chimeric anti-PD-1 antibody 32B5C7 (antibody, V domains shown)
VH: EVQLLESGGGLVQPGGSLRLSCAASGFTFSSYAMSWVRQAPGKGLEWVSTISGSGGTTYYADSVKGRFTISRDNSKNTLYLQMNSLRAEDTAVYYCTLTGDPDYWGQGTLVTVSS
VL: EIVLTQSPATLSLSPGERATLSCRASQSVSSYLAWYQQKPGQAPRLLIYDASKRATGIPARFSGSGSGTDFTLTISSLEPEDFAVYYCQQRNNWPLTFGGGTKVEIK
notes: Purified from hybridoma of Harbour H2L2 mice: human variable regions, rat constant regions
B2: chimeric anti-PD-1 antibody 76G5B3 (antibody, V domains shown)
VH: QVQLVESGGGVVQPGRSLRLSCAASGFTFSDYGFHWVRQAPGKGLEWVAVIWYDGSNEYYTDSVKGRFTISRDNSKNTLYLQMNSLRAEDTAMYFCVVNPFDYWGQGTLVTVSS
VL: DIQMTQSPSSLSAFVGDRVTITCRASQGINHYLAWYQQKPGKAPNLLILAASTLLSGVPSRFGGRGSGTDFTLIISSLQPEDVATYYCQKYDSAPYTFGQGTKLEIK
notes: as for B1
B3: chimeric anti-PD-1 antibody 21G8F11 (antibody, V domains shown)
VH: EVQLLESGGGLAQPGGSLRLSCAASGFSFNTYLMHWVRQAPGKGLEWVSAISGGGGNTYYADSVKGRFTISRDNSKNTLYLQMNSLRAEDTAVYYCAKENRIPVAPFDYWGQGTLVTVSS
VL: DIQMTQSPSTLSASVGDRVTITCRASQSISTWLAWYQQKPGKAPKLLIYKASSLESGVPSRFSGSGSGTEFTLTISSLQPDDLATYYCQQYNSFSWTFGQGTKVEIK
notes: as for B1

Chain of CD28 (P10747 19-152 limits assumed): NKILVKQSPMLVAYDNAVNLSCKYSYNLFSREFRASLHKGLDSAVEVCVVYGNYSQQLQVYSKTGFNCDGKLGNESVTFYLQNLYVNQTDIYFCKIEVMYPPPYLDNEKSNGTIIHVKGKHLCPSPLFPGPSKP
T6 sequence (Q15116 25-288 limits assumed): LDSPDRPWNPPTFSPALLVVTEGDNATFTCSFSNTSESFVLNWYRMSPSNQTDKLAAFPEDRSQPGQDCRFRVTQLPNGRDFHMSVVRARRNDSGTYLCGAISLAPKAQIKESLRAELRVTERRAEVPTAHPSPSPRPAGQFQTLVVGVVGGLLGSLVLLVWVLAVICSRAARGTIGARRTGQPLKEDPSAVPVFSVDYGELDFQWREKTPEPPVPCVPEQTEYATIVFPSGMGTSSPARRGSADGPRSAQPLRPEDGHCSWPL

In the first assay the target is T4, human PD-1^ECD-hFc protein (Immunogen A) (human, UniProt Q15116 25-167).
T4 construct: Biotinylated for the Octet assay; also called PD-1-hFc; hPD-1^ECD-hFc; not shown: human IgG Fc fragment (hFc)
T4 sequence (Q15116 25-167): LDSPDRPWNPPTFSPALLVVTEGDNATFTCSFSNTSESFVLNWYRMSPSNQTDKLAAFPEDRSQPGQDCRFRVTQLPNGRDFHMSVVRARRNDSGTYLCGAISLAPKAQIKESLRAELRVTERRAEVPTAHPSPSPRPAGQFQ
Kind of assay: ELISA, coated human PD-1ECD-hFc; antibody 1 nM. As to the method:
(§1) 100 uL of the diluted recombinant proteins were added to each well of 96-well plate. The plates were sealed with plastic film and incubated at 4° C. overnight. The plates were washed twice with wash buffer (PBS+0.01% (v/v) Tween20), and incubated with blocking buffer (PBS+0.01% (v/v) Tween20+1% (w/w) BSA) at room temperature for 2 hours. The blocking buffer was aspirated away, and 100 uL of purified anti-PD-1 antibodies were added to each well and incubated for 2 hours at 37° C. The plates were washed three times with wash buffer (PBS+0.01% (v/v) Tween20). HRP-conjugated secondary antibody (Sigma) was added to each well and incubated for 2 hours at 37° C. After the plates were washed three times with wash buffer, 100 uL TMB substrate was added to each well and incubated for 30 minutes at room temperature. 100 uL stop solution (0.1N HCl) was added to each well to stop the reaction. The absorbance at 450 nm was measured with an ELISA plate reader (384plus SpectraMax, Molecular Devices).
For the molecule B1, the OD450 nm worked out at 3.02.

In turn, B2 yielded an OD450 nm of 3.07.

Consider B3, for which the OD450 nm is 2.83.

In the next assay the target is T5, cyno PD-1^ECD-hFc protein (cyno monkey, UniProt B0LAJ3 25-167).
T5 construct: Prepared by the method for Immunogen A; also called Cyno Monkey PD-1^ECD-hFc; cyno monkey PD-1-hFc; not shown: human IgG Fc fragment (hFc) and its junction to the ECD
T5 sequence (B0LAJ3 entry or part of it limits assumed): as the sequence (Q15116 25-167) above, with D2E, P10A, V19L, T35A, Q75R counted along it
Briefly: ELISA, coated cyno PD-1ECD-hFc; antibody 100 nM. As to the method: as §1
Consider B1, for which the OD450 nm came to 1.66.

With B2, the OD450 nm stood at 1.89.

In turn, B3 showed an OD450 nm of 2.61.

The next assay has as its target T6, full length human PD-1 on cells (human, UniProt Q15116 25-288).
T6 construct: Also used here for PD-1 on human T cells/PBMC; also called CHO-K1-hPD-1; hPD-1
Kind of assay: flow cytometry, CHO-K1-hPD-1 cells; antibody 100 nM. An excerpt:
CHO-K1 cells were stably transfected with pIRES plasmid containing the nucleic acid sequence encoding full length human PD-1 (see Example 2, step 2) to generate CHO-K1 cells stably expressing human PD-1 (herein referred to as CHO-K1-hPD-1 cells). Other CHO-K1 were stably transfected with pIRES plasmid containing the nucleic acid sequence encoding full length cyno PD-1 to generate CHO-K1 cells stably expressing cyno PD-1 (herein referred to as CHO-K1-cPD-1 cells). CHO-K1-hPD-1 and CHO-K1-cPD-1 cells were cultured and expanded in T-75 culture flasks to 90% confluence. The culture media was aspirated, and the cells were washed twice with HBSS (Hanks Balanced Salt Solution, Invitrogen). The cells were treated with enzyme-free cell dissociation solution (Versene solution, Invitrogen) and collected. The cells were then washed twice with HBSS, cell counts were determined, and cells were resuspended with HBSS at 2×10⁶ cells/mL. Goat serum was added to the cell suspension to a final concentration of 1%, and the cells were blocked for 30 minutes on ice and then washed twice with HBSS. The cells were collected after centrifugation and resuspended in FACS buffer (HBSS+1% BSA, v/v) at 2×10⁶ cells/mL. 100 uL of the cell suspension were then added to each well of 96-well plate. 100 uL of purified anti-PD-1 antibodies from Example 2 were added to each well of the 96-well plate and incubated for 2 hours on ice. […] The samples were washed three times with FACS buffer, and 100 uL fixation buffer (4% paraformaldehyde v/v) were added to each well and incubated for 10 minutes. The cells were then washed twice with FACS buffer and resuspended in 100 uL FACS buffer. The mean fluorescence intensity (MFI) was determined using FACS Calibur (BD), and the results are shown in FIGS. 7-8 and in Tables 10-11.
A general note: A flow cytometer gives signals particle by particle.
With B1, the Mean fluorescence intensity was determined as 253.

In turn, B2 showed a Mean fluorescence intensity of 443.

As for B3, the Mean fluorescence intensity was found to be 661.

In the next assay the target is CD28 (human, UniProt P10747 19-152). Kind of assay: ELISA, coated protein 1 ug/mL; antibody concentration not stated. As to the method:
as §1
(In general: An ELISA detects its analyte on a solid surface through an enzyme-linked reagent.)
B1: the OD450 nm was found to be 0.062.

B2 yielded an OD450 nm of 0.061.

The molecule B3 displayed an OD450 nm of 0.144.

The target in the next assay is T1, B7-1. The assay is described as above. As to the method: as §1
Consider B1, for which the OD450 nm came out at 0.36.

B2 gave an OD450 nm of 0.271.

For the molecule B3, the OD450 nm turned out to be 0.154.

In the next assay the target is T2, ICOS. The assay is described as above. As to the method: as §1
On to B1, for which the OD450 nm was 0.483.

As to B2, the OD450 nm is 0.173.

In the case of B3, the OD450 nm amounted to 0.128.

For a further assay, the target named is T3, CTLA4. Described as above. As to the method:
as §1
B1 came in with an OD450 nm of 0.172.

The molecule B2 displayed an OD450 nm of 0.135.

The molecule B3 displayed an OD450 nm of 0.091.

A further assay addresses T4, human PD-1^ECD-hFc protein (Immunogen A). The assay is described as above. As to the method:
as §1
Consider B1, for which the OD450 nm worked out at 2.69.

On to B2, for which the OD450 nm is 2.76.

For B3, the OD450 nm was determined as 2.25.

The target is the same in a further assay. Kind of assay: protein-based receptor-ligand blocking ELISA: coated PD-1ECD-hFc, blocked ligand biotinylated PD-L1ECD, streptavidin-HRP. Here is the method:
Purified PD-1^ECD-hFc (Example 2) was diluted with PBS to a final concentration of 1.0 ug/mL, and 100 uL diluted PD-1^ECD-hFc were added to each well of a 96-well plate that was then sealed with plastic film and incubated at 4° C. overnight. The plate was washed twice with wash buffer (PBS+0.01% (v/v) Tween 20) and incubated with blocking buffer (PBS+[…]) at room temperature for 2 hours. The blocking buffer was aspirated, and 50 uL purified anti-PD-1 antibodies from Example 2 were added to each well of 96-well plate. […] The plate was washed three times with wash buffer (PBS+0.01% (v/v) Tween 20). 100 uL HRP-conjugated streptavidin (Sigma) were then added to each well and incubated at 37° C. for 2 hours. The plate was then washed three times with wash buffer, and 100 uL TMB substrate were added to each well. After 30 minutes of incubation at room temperature, the reaction was stopped by adding 100 uL stop solution (0.1N HCl). The absorbance at OD450 nm was measured with an ELISA plate reader (384plus SpectraMax, Molecular Devices).
Take B1: the “IC50 (read off the curve)” value was around 1000 pM.

As to B2, the “IC50 (read off the curve)” value is around 900 pM.

Turning to B3, the “IC50 (read off the curve)” value is around 0.4 µg/mL.
